Reference: patent US20110305783A1, “Method and pharmaceutical composition for treating psoriasis, squamous cell carcinoma and/or parakeratosis by inhibiting expression of squamous cell carcinoma-related antigen” (Shiseido Company, Ltd., priority 2005, published 2011)
Entries after “also recorded” stand apart in the source; their conditions may differ. Read-outs that look alike come from different tables or passages of the source. Ends that are not written are not given here. * marks the point of attachment. Cbz = O=C(OCc1ccccc1)*; CH2F = FC*

T1: caspase-14 (Homo sapiens, UniProt P31944)
T1 construct: human caspase-14 is purified in the form of a heterodimer composed of a large subunit (17 KDa) and a small subunit (11 KDa); from tissue; host or cells: human cornified cells (heel stratum corneum)
T1 sequence (P31944 6-146 limits assumed): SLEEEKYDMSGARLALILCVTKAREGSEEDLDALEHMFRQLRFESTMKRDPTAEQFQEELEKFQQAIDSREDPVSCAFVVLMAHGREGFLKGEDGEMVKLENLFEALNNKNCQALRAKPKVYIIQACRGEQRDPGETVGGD
T1 sequence (P31944 153-242 limits assumed): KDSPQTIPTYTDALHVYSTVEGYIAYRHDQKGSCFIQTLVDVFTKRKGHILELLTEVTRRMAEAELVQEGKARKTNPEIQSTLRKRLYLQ

T2: caspase-3 (Homo sapiens, UniProt P42574)
T2 construct: purchased BIOMOL Research Labs, Inc. (Plymouth Meeting, Pa.)
T2 sequence (P42574 29-277): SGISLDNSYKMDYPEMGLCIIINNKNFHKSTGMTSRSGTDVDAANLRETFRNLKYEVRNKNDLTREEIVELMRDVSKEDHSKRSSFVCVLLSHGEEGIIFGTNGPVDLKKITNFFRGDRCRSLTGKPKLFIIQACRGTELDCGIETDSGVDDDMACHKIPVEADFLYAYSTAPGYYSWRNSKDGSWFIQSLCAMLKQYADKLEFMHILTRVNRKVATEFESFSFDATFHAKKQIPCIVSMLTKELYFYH


Legend:
Format in all cases: biochemical
caspase-14 [1] = molecular target: T1, caspase-14; assay: Inhibitor assay on purified caspase-14, WEHD-MCA hydrolysis activity
Protocol: Caspase-14 was incubated with peptide inhibitors of caspase (consisting of YVAD, VDVAD, DEVD, VEID, IETD, LEHD and DNLD) and class-specific inhibitors of cysteine proteinase (IAA) and serine proteinase (AEBSF). Residual enzyme activity was measured using WEHD-MCA as substrate in the presence of 1.3 M sodium citrate and 5 mM DTT. […] The values are shown as the average values of duplicate assays.
Briefly, the assay mixture was prepared from 45 μl of 0.1 M HEPES buffer (pH 7.5), 0.06 M NaCl, 0.01% CHAPS, 5 mM DTT, 1.3 M sodium citrate and 10 μM WEHD-MCA (all concentrations indicate the final concentrations). An enzyme sample (5 μl) was added to this mixture followed by incubating for 10 to 30 minutes. The reaction was stopped with 150 μl of 0.1 M monochloroacetic acid, and measurements were performed at an excitation wavelength of 355 nm and emission wavelength of 460 nm using Fluoroskan Ascent FL (Thermo Electron Co., Wolsam, Mass.). In the case of the inhibitor assay, caspase-14 and peptide inhibitor were incubated in the assay buffer for 15 minutes, and the assay was started with the addition of 5 μl of 100 μM WEHD-MCA.
Human cornified cells (approx. 14 g) scraped from the heels of healthy individuals were extracted with 0.1 M Tris-HCl (pH 8.0) containing 0.14 M NaCl using a glass homogenizer. A supernatant was obtained after centrifuging at 15,000 g for 60 minutes. After concentrating with Amicon Ultra (Millipore, Mass.) and desalting with the Fast Desalting Column HR10/10 (Amersham Biosciences), the crude product was applied to a HiPrep 16/10 QXL column. […] In addition, hydrolysis activity with respect to Ac-[…]-Glu-His-Asp-methyl-coumarin amide (WEHD-MCA) (Peptide Institute, Inc., Osaka, Japan) was measured for each fraction. Positive fractions were placed on a Mono Q column equilibrated with the same buffer and eluted a maximum NaCl gradient of 1 M. The caspase-14 fraction was further separated by Mono S cationic exchange chromatography. The column was equilibrated with 20 mM acetate buffer (pH 4.5) and eluted at an NaCl gradient of 0 to 1 M. Positive fractions were concentrated and placed on a chromatofocusing Mono P column equilibrated with 25 mM ethanolamine (pH 8.3). The column was eluted while forming a pH gradient from 8 to 5 using 46 ml of Polybuffer (pH 5.0). The caspase-14 was finally purified using Superdex 75 gel chromatography. The protein concentration was determined with the BioRad Protein Assay Kit (BioRad Lab, Hercules, Calif.).

caspase-3 = molecular target: T2, caspase-3; assay: Caspase-3 activity with SCCA-1, synthetic substrate DEVD-MCA or natural substrate ICAD
Text: The enzymatic characteristics of purified caspase-14 were extremely unique. […] The inventors of the present invention determined for the first time that SCCA-1 is an intrinsic inhibitor against caspase-14. The most unique characteristic of SCCA-1 is its remarkable specificity for caspase-14. Other members of caspase-1 to -10 are not affected by SCCA-1. […] Crm A belongs to the serpin superfamily and is known to be able to inhibit a large number of caspases including caspase-1 and caspase-8 (Gagliardini, V., et al., Science 263, 826-(1994)). XIAP is known to inhibit caspase-3, -7 and -9 (Srinivasula, S. M., et al., Nature 410, 112-6 (2001)). Since the anti-apoptotic protein p35 inhibits caspase-1, -3, -6, -7, -8 and -10, it is considered to have a broader spectrum.

[2] = system: Recombinant caspases-1 to 10; assay: Recombinant caspases incubated with SCCA-1, hydrolysis of synthetic caspase substrates; conditions: recombinant caspase incubated with SCCA-1 (FIG. 10C)
Protocol: (§1) ICAD decomposition was only observed in the presence of kosmotropic salt. […] When SCCA-1 was added to the mixture, ICAD decomposition was virtually not detected, and there were still no effects after incubating for 16 hours (B). (C) The results are shown of investigating hydrolysis activity on synthetic caspase substrates in the presence of kosmotropic salt.
Benzyloxycarbonyl (Z)-YVAD-FMK, Z-VDVSD-FMK, Z-DEVD-FMK, Z-VEID-FMK, Z-IETD-FMK, Z-LEHD-FMK and Z-VAD-FMK were purchased from BioVision (Mountain View, Calif.). Recombinant caspases-1 to 10 were obtained from BIOMOL Research Labs, Inc. (Plymouth Meeting, Pa.).
(§2) Although SCCA-1 is a member of the serpin superfamily, it inhibits cysteine proteases such as papain and cathepsin L (Takeda, A., et al., Biol. Chem., 383, 1231-6 (2002)). […] Thus, the inventors of the present invention conducted a test as to whether or not SCCA-1 is able to inhibit caspase members. Kosmotropic conditions were used in the case of caspase-14. […] Recovery of enzyme activity was not observed even if the incubation time increased.

caspase-14 [3] = molecular target: T1, caspase-14; assay: ICAD decomposition by purified caspase-14, Western blot; conditions: pre-incubation with 10 μM SCCA-1, kosmotropic salt, Western blot (FIG. 10B)
Protocol: as §1
The inventors of the present invention tested the effects of caspase-14 on ICAD during the course of searching for natural substrates of caspase-14. This is because disappearance of the nucleus is an extremely important event for terminal differentiation.
as §2

[4] = inhibitors at 5, 2.5 and 1.25 μM, WEHD-MCA substrate, 1.3 M sodium citrate, 5 mM DTT

Row | Inhibitory effect on purified caspase-14 activity (caspase-14 [1]; [4]) | Molecule | other results
1 | hardly any effect | VEID-FMK: peptide inhibitor of caspase (Cbz-VEID-CH2F) | 
2 | sensitivity | DEVD-FMK: caspase-3 inhibitor | 

The remaining lines, values behind:

Row | Molecule | Inhibitory effect on purified caspase-14 activity (caspase-14 [1]; [4]) | other results
3 | O=C(O)CI [IAA, iodoacetic acid] |  | Inhibitory effect on purified caspase-14 activity (caspase-14 [1]): did not exhibit significant inhibitory effects
4 | Benzyloxycarbonyl (Z)-YVAD-FMK | extremely potent inhibitory effects; also recorded: most potent inhibitory action | 
5 | NCCc1ccc(S(=O)(=O)F)cc1 [ABBSF, 4-(2-aminoethyl)benzenesulfonyl fluoride] | did not exhibit significant inhibitory effects | 
6 | LEHD-FMK: caspase-9 inhibitor (Cbz-LEHD-CH2F) | sensitivity | 
7 | VDVAD-FMK: caspase-2 inhibitor (VDVAD-CH2F) | sensitivity | 
8 | VAD-FMK: pan-caspase inhibitor (Cbz-Val-Ala-Asp-CH2F) | sensitivity; also recorded: one of the most potent caspase-14 inhibitors | 
9 | IETD-FMK: caspase-8 inhibitor (Cbz-IETD-CH2F) | sensitivity | 
10 | SCCA-1: recombinant squamous cell carcinoma antigen 1, member of the serpin superfamily, intrinsic inhibitor of caspase-14 (protein) MNSLSEANTKFMFDLFQQFRKSKENNIFYSPISITSALGMVLLGAKDNTAQQIKKVLHFDQVTENTTGKAATYHVDRSGNVHHQFQKLLTEFNKSTDAYELKIANKLFGEKTYLFLQEYLDAIKKFYQTSVESVDFANAPEESRKKINSWVESQTNEKIKNLIPEGNIGSNTTLVLVNAIYFKGQWEKKFNKEDTKEEKFWPNKNTYKSIQMMRQYTSFHFASLEDVQAKVLEIPYKGKDLSMIVLLPNEIDGLQKLEEKLTAEKLMEWTSLQNMRETRVDLHLPRFKVEESYDLKDTLRTMGMVDIFNGDADLSGMTGSRGLVLSGVLHKAFVEVTEEGAEAAAATAVVGFGSSPTSTNEEFHCNHPFLFFIRQNKTNSILFYGRFSSP |  | Inhibition of caspase-3 activity (caspase-3): did not inhibit; Effect on enzyme activity of caspase members (1 to 10) [2]: None of the caspase members (1 to 10) were affected; Inhibition of ICAD cleavage by caspase-14 (caspase-14 [3]): inhibited decomposition of ICAD; also recorded: completely inhibited
